Measurements taken from patent publication US20240092867A1 (UNIVERSITY OF CHICAGO, published 2024).

Experiments:
recombinant human BMP-2 = target: T1, recombinant human BMP-2 (human, UniProt P12643 283-396); experiment: ELISA, rhBMP-2 coated 50 nM
T1 construct: also called rhBMP-2
Experimental: ELISA plates (NUNC MaxiSorp) were coated with 50 nM of recombinant human BMP-2 (CHO produced, R&D Systems, Minneapolis MN, USA) overnight at room temperature.

bovine type I collagen [1] = target: T2, bovine type I collagen (bovine, UniProt P02453 178-1191; P02465 89-1102); experiment: ELISA on coated bovine type I collagen (10 µg/mL), FabCol titrated, HRP-anti-human Fab [panel C]
T2 construct: PureCol, Advanced BioMatrix; coated on the plate; also called collagen I; PureCol
Experimental: (§1) ELISA plates (NUNC MaxiSorp, ThermoFisher Scientific) were coated overnight with 10 μg/mL of bovine type I collagen (PureCol, Advanced BioMatrix, San Diego CA, USA) at room temperature. The plate was further blocked using 2% bovine serum albumine (BSA) for 2 h at room temperature. […] The plate was washed thrice in PBST, and an horseradish peroxidase-conjugated anti-human Fab antibody (Jackson ImmunoResearch,) was used to detect bound FabCol variants. […] Absorbance at 450 nm was read using […], and corrected using the absorbance at 570 nm. Curve fits and dissociation constant KD were computed using Prism (GraphPad Software Inc., USA).

bovine type I collagen [2] = target: T2, bovine type I collagen; experiment: ELISA on coated bovine type I collagen (10 µg/mL), FabCol titrated 0.01-30 nM, HRP-anti-human Fab [panel C]
Experimental: as §1

mVEGF-C = target: T3, mVEGF-C (mouse, UniProt P97953); experiment: ELISA; growth factors coated at 100 nM, FabCol variants at 100 nM in solution, HRP-anti-human Fab [panel F]
T3 construct: also called mouse wild-type VEGF-C
T3 sequence (growth factor chain, looked up): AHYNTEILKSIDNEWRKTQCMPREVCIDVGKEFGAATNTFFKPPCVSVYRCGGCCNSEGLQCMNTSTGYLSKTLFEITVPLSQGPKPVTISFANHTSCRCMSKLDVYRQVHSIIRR

[3] = target: T4, placental growth factor (PlGF)-2 (human, UniProt P49763-3 19-170); experiment: as above
T4 construct: mature; Purchased in mature form
T4 sequence (looked up): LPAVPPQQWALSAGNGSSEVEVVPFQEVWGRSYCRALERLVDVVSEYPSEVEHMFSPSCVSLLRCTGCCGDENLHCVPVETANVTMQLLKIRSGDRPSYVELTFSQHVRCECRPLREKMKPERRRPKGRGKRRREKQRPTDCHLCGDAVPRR

[4] = target: T5, placental growth factor (PlGF)-1 (human, UniProt P49763-2 19-149); experiment: as above
T5 construct: mature; Purchased in mature form
T5 sequence (looked up): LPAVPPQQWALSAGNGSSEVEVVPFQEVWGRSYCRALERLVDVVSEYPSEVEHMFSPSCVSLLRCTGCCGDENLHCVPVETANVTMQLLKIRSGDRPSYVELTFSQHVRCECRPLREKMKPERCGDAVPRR

[5] = target: T6, platelet-derived growth factor (PDGF)-BB (human, UniProt P01127 82-190); experiment: as above
T6 construct: mature; Purchased in mature form

[6] = target: T7, vascular endothelial growth factor (VEGF)-A165 (human, UniProt P15692-4 27-191); experiment: as above
T7 construct: mature; Purchased in mature form, not glycosylated

bovine type I collagen [7] = target: T2, bovine type I collagen; experiment: ELISA on coated bovine type I collagen (10 µg/mL), FabCol titrated, HRP-anti-human Fab; table headed 'Estimated KD (nM)' [panel C]
Experimental: as §1

bovine type I collagen [8] = target: T2, bovine type I collagen; experiment: ELISA on coated bovine type I collagen (10 µg/mL), FabCol titrated 0.01-30 nM, HRP-anti-human Fab; table headed 'Estimated KD (nM)' [panel C]
Experimental: as §1

[9] = target: T8, vascular endothelial growth factor (VEGF)-A121 (human, UniProt P15692-9 27-147); experiment: ELISA, peptide coated
T8 construct: mature; Purchased in mature form, not glycosylated
T8 sequence (looked up): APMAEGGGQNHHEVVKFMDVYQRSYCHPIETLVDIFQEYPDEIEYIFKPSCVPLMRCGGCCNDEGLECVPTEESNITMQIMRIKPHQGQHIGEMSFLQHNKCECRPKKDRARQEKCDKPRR
Summary of the method: (§2)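 Wells coated with 10 μg/mL laminin α3/α4/α5 LG-domain peptides, BSA-coated wells as non-binding control, blocked with 2% BSA PBS-T. Recombinant human GFs added at 1 μg/mL; bound GF detected with GF-specific biotinylated antibody plus streptavidin-HRP (n=4, mean±SEM).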

[10] = target: T5, placental growth factor (PlGF)-1; experiment: ELISA, peptide coated
Summary of the method: as §2

[11] = target: T4, placental growth factor (PlGF)-2; experiment: ELISA, peptide coated, GF 1 µg/mL
Summary of the method: as §2

[12] = target: T6, platelet-derived growth factor (PDGF)-BB; experiment: ELISA, peptide coated, GF 1 µg/mL
Summary of the method: as §2

[13] = target: T9, fibroblast growth factor (FGF)-2 (human, UniProt P09038 143-288); experiment: ELISA, peptide coated, GF 1 µg/mL
T9 construct: mature; Purchased in mature form
Summary of the method: as §2

[14] = target: T7, vascular endothelial growth factor …; experiment: ELISA, peptide coated, GF 1 µg/mL
Summary of the method: as §2

[15] = target: T10, recombinant human syndecan-1 (human, UniProt P18827 23-254, limits assumed); experiment: ELISA, peptide coated, anti-His detection
T10 construct: Histidine tag of unstated position and length
T10 sequence (looked up): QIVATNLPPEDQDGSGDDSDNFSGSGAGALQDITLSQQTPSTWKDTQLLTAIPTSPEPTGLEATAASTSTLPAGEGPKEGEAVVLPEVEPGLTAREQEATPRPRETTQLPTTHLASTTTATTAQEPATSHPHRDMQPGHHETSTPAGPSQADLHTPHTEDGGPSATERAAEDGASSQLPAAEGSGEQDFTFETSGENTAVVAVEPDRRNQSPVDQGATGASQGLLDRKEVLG
Experimental: (§3) ELISA tests were performed as described above. In brief, ELISA plates were coated with 1 μg/mL laminin peptide (sequences are described in Table 1, chemically synthesized by Genscript) in PBS for 2 hrs at 37° C. 1 μg/mL of BSA served as non-binding protein control. After blocking with 2% BSA PBS-T solution, 1 μg/mL of the recombinant human syndecan-1, syndecan-2, syndecan-3, syndecan-4 (all syndecan proteins are histidine-tagged; SinoBiological) were added. Bound GF was detected with anti-histidine tag antibody (1:1000 dilution, BioLegend).

[16] = target: T11, recombinant human syndecan-2 (human, UniProt P34741 19-144, limits assumed); experiment: ELISA, peptide coated, anti-His detection
T11 construct: Histidine tag of unstated position and length
Experimental: as §3

[17] = target: T12, recombinant human syndecan-3 (human, UniProt O75056 48-387, limits assumed); experiment: ELISA, peptide coated, anti-His detection
T12 construct: Histidine tag of unstated position and length
Experimental: as §3

[18] = target: T13, recombinant human syndecan-4 (human, UniProt P31431 19-145, limits assumed); experiment: ELISA, peptide coated, anti-His detection
T13 construct: Histidine tag of unstated position and length
T13 sequence (looked up): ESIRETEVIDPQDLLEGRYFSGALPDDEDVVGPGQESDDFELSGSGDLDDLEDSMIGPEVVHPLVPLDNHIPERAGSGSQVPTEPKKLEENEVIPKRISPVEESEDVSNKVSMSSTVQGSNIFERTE
Experimental: as §3

[19] = target: T14, recombinant human vWF A2 domain (human, UniProt P04275 1498-1665); experiment: ELISA, domain coated 50 nM
T14 construct: domain: A2
Experimental: (§4) ELISA was performed as previously reported1. […] After blocking with 2% BSA solution containing PBS-T, 1 μg/mL of recombinant human VEGF-A121 (PeproTech), recombinant human VEGF-A145 (R & D Systems), or recombinant human VEGF-A165 (PeproTech) was added. Bound VEGF-A was detected with 1 μg/mL of mouse anti-human VEGF-A antibody (clone: 26503, R & D systems). After 60 min of incubation, horseradish peroxidase (HRP) conjugated goat anti-mouse antibody (1:2000 dilution, Dako) was added and incubated for another 60 min. Color development and the absorbance measurement were done as described above.

[20] = target: T15, recombinant human vWF A3 domain (human, UniProt P04275 1683-1874); experiment: ELISA, domain coated 50 nM
T15 construct: domain: A3
Experimental: as §4

human plasma-derived vWF = target: T16, human plasma-derived vWF (human, UniProt P04275 764-2813); experiment: ELISA, vWF coated 50 nM, VEGF-A 1 µg/mL
T16 construct: mature; also called plasma-derived purified vWF; von Willebrand factor
Experimental: as §4

[21] = target: T17, recombinant human vWF A1 domain (human, UniProt P04275 1261-1468, limits assumed); experiment: ELISA, domain coated 50 nM, VEGF-A 1 µg/mL
T17 construct: domain: A1; also called vWF A1 recombinant protein; recombinant A1 domain
Experimental: as §4

[22] = target: T8, vascular endothelial growth factor …; experiment: ELISA, HBD peptide coated
Experimental: (§5) ELISA tests were performed as described above. […] After blocking with 2% BSA solution containing PBS-T, 1 μg/mL of the recombinant human proteins VEGF-A121, VEGF-A165, PlGF-1, PlGF-2, PDGF-BB, FGF-2, CXCL-12α and CXCL-12γ were added. 1 μg/mL of BSA served as non-binding protein control. Bound GF or chemokine was detected with biotinylated antibodies for human VEGF-A, PlGF, PDGF-BB, FGF-2, or CXCL-12 (R & D Systems). The antibodies were detected by streptavidin-HRP (R & D Systems). Color development and the absorbance measurement were done as described above.

[23] = target: T5, placental growth factor (PlGF)-1; experiment: ELISA, HBD peptide coated
Experimental: as §5

T2 sequence (P02453 178-1191, chain 1 of 2): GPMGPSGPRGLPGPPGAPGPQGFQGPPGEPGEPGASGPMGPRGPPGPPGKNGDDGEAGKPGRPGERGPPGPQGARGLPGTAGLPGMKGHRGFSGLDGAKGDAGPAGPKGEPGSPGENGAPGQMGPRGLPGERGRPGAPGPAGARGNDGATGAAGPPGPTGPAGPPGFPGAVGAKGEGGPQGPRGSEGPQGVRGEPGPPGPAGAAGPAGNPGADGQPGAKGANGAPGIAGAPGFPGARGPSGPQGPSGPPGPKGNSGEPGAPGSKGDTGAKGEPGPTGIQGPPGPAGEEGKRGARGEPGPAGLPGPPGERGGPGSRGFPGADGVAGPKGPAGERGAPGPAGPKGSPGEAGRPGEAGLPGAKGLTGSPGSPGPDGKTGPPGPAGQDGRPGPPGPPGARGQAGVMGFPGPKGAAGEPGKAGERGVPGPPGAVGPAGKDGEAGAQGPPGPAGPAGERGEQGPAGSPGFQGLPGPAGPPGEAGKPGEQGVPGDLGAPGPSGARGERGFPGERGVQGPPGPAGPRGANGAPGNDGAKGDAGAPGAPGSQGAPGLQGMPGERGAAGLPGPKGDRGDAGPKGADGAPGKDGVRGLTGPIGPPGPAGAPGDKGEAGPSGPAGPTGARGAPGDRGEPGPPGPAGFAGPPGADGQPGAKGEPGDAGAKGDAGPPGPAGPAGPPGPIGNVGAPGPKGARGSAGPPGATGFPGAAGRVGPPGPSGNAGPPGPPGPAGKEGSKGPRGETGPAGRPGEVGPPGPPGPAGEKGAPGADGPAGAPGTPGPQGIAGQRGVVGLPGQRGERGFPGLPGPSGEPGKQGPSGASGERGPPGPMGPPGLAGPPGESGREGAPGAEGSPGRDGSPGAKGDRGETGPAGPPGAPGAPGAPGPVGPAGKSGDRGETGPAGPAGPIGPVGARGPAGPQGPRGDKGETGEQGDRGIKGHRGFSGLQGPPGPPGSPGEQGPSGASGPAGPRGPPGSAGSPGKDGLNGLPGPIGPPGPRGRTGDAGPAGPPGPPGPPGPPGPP
T2 sequence (P02465 89-1102, chain 2 of 2): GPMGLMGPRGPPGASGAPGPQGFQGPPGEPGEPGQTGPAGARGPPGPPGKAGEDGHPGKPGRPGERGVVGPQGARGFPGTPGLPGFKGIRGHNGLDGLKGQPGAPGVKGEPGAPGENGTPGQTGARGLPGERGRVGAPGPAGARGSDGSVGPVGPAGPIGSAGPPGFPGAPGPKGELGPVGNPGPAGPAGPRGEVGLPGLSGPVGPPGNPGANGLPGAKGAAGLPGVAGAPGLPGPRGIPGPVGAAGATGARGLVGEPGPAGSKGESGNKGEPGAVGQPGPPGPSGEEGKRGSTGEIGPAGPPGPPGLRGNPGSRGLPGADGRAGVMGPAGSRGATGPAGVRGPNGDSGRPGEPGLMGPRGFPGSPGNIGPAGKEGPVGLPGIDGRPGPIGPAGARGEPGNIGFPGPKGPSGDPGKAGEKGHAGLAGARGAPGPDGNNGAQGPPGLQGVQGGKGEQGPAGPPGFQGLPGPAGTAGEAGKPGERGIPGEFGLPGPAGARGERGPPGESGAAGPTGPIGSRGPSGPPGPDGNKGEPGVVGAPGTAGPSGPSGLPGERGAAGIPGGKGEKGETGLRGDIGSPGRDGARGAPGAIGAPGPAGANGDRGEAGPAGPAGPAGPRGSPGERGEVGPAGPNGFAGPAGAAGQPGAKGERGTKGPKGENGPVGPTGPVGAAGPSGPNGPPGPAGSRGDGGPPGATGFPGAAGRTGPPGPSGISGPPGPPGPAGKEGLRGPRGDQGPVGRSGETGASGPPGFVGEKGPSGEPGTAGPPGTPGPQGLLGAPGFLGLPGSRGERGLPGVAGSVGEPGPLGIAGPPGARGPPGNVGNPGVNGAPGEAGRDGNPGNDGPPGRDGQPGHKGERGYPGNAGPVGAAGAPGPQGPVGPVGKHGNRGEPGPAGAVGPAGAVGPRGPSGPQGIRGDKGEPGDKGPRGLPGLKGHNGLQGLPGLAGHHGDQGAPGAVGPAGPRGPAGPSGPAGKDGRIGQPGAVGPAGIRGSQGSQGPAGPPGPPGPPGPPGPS
T6 sequence (P01127 82-190): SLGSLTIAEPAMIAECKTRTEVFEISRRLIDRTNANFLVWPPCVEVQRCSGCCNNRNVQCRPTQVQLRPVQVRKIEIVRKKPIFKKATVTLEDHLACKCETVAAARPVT
T1 sequence (P12643 283-396 limits assumed): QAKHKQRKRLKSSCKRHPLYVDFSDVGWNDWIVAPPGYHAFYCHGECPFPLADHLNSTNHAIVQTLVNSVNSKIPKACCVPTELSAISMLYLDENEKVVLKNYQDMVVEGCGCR
T9 sequence (P09038 143-288): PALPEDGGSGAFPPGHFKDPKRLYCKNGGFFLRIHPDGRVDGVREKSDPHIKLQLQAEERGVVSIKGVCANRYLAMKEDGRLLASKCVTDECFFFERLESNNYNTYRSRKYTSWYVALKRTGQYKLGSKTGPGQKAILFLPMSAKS
T12 sequence (O75056 48-387 limits assumed): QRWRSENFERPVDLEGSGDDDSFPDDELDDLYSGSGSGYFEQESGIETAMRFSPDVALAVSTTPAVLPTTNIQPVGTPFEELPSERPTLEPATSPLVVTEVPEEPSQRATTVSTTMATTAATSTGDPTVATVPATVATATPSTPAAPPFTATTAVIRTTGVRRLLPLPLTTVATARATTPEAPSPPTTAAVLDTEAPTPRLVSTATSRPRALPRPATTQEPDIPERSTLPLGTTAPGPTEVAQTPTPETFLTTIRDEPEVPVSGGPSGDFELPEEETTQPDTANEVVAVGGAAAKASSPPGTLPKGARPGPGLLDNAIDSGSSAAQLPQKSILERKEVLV
T11 sequence (P34741 19-144 limits assumed): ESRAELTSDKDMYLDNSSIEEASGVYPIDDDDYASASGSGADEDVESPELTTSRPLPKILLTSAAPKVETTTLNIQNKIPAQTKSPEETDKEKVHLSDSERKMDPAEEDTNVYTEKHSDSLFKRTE

B1: FabCol (Fab)
light: EIVLTQSPGTLSLSPGERATLSCRASQSVSSSYLAWYQQKPGQAPRLLIYGASSRATGIPDRFSGSGSGTDFTLTISRLEPEDFAVYYCQQAIGFPQTFGQGTKVEIKRTVAAPSVFIFPPSDEQLKSGTASVVCLLNNFYPREAKVQWKVDNALQSGNSQESVTEQDSKDSTYSLSSTLTLSKADYEKHKVYACEVTHQGLSSPVTKSFNRGEC
heavy: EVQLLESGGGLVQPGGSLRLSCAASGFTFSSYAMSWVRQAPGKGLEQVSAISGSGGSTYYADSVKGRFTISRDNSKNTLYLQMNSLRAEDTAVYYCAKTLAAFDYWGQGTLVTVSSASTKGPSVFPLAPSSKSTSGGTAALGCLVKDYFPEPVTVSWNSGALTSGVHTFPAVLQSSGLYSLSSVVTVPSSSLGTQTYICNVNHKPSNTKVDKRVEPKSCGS
notes: Human Fab with human Fab constant regions; also called non-conjugated FabCol; anti-collagen I Fab (clone C11)
binding result (recombinant human BMP-2): no binding (tested: 50 nM) | EC50 (read off the curve) (bovine type I collagen [1]): ~0.2 nM | EC50 (read off the curve) (bovine type I collagen [2]): ~1 nM | binding result (mVEGF-C): no binding (tested: 100 nM (single concentration)) | binding result [3]: no binding (tested: 100 nM (single concentration)) | binding result [4]: no binding (tested: 100 nM (single concentration)) | binding result [5]: no binding (tested: 100 nM (single concentration)) | binding result [6]: no binding (tested: 100 nM (single concentration)) | Kd (bovine type I collagen [7]): 0.3 nM | Kd (bovine type I collagen [8]): 0.9 nM

TLPDVGLELEVR (Chemically synthesized (Genscript)) [laminin α5 3539-3550 peptide (LG5)]
binding result [9]: no binding (tested: 1 µg/mL) | binding result [10]: no binding (tested: 1 µg/mL) | binding result [11]: binds | binding result [12]: binds | binding result [13]: binds | binding result [14]: binds | binding result [15]: no binding (tested: 1 µg/mL) | binding result [16]: no binding (tested: 1 µg/mL) | binding result [17]: no binding (tested: 1 µg/mL) | binding result [18]: no binding (tested: 1 µg/mL)

B2: recombinant human VEGF-A145 (ligand, UniProt P15692-6 27-171, looked up)
chain: APMAEGGGQNHHEVVKFMDVYQRSYCHPIETLVDIFQEYPDEIEYIFKPSCVPLMRCGGCCNDEGLECVPTEESNITMQIMRIKPHQGQHIGEMSFLQHNKCECRPKKDRARQEKKSVRGKGKGQKRKRKKSRYKSWSVCDKPRR
binding result [19]: no binding (tested: 1 µg/mL) | binding result [20]: no binding (tested: 1 µg/mL) | binding result (human plasma-derived vWF): binds | binding result [21]: binds

B3: vWF A1 HBD peptide (23 residues) (peptide)
peptide: YIGLKDRKRPSELRRIASQVKYA
notes: Chemically synthesized (Genscript); also called vWF HBD; vWF A1 peptide
binding result [22]: no binding (tested: 1 µg/mL) | binding result [23]: no binding (tested: 1 µg/mL)
